Experimental data reported in patent publication US20170088610A1.
Read-outs that look alike come from different tables or passages of the source.

Assays:
[1] = target: human nerve growth factor (human) (UniProt P01138); test: cell-based or functional assay
[2] = target: rat nerve growth factor (rat) (UniProt P25427); test: cell-based or functional assay
[3] = target: human nerve growth factor (human) (UniProt P01138); test: BIAcore SPR, Fab over immobilised human NGF
[4] = target: human nerve growth factor (human) (UniProt P01138); test: BIAcore SPR, Fab over immobilised human NGF (100 RU)
[5] = target: human nerve growth factor (human) (UniProt P01138); test: as above; remark: listed apart in the source
[6] = target: human nerve growth factor (human) (UniProt P01138)

human nerve growth factor (human), sequence (P01138 122-241 limits assumed): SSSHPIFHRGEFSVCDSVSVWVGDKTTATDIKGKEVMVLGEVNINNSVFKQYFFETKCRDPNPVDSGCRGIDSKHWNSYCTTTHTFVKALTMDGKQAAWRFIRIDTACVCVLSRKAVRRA
rat nerve growth factor (rat), sequence (P25427 122-241 limits assumed): as the sequence (P01138 122-241 limits assumed) above, with S3T, I6V, R9M, M37T, D60A, D65E, M92T, G94D, V117A, A120G counted along it

Kd [3]	Kd [4]	koff [4]	kon [4]	koff [5]	Substance	IC50, human NGF-dependent survival of mouse E13.5 trigeminal neurons (1.5 pM NGF) [1]	IC50, human NGF-dependent survival of mouse E13.5 trigeminal neurons (15 pM NGF) [1]	NGF-elicited survival of E17/18 trigeminal neurons [1]	IC50, rat NGF-dependent survival of mouse E13.5 trigeminal neurons (1.5 pM NGF) [2]	IC50, rat NGF-dependent survival of mouse E13.5 trigeminal neurons (15 pM NGF) [2]	IC50 (read off the curve), NGF-dependent survival of E13.5 trigeminal neurons (0.4 ng/ml human NGF, 48 h) [6]
10 nM	3.7 nM	9e-05 s⁻¹	22000 M⁻¹ s⁻¹	8.4e-05 s⁻¹	mouse monoclonal anti-NGF antibody 911 (Fab)	63.5 pM	322 pM	20 nM	34.6 pM	161 pM	–
–	–	–	–	–	trkA receptor immunoadhesin (Fc fusion)	–	–	–	–	–	0.07 nM
